± gives the uncertainty stated by the source.
Test: protein stability index of a GFP-peptide fusion (yeast GPS) (PSI 1-4); higher = more stable; sorted into four equal gates, so the index is relative within each strain
In short: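 The protein stability index of a peptide was calculated by multiplying its read frequency in each gate by that gate's number and adding the products. The peptides were tiled 17-residue stretches of yeast proteins, fused downstream of GFP on a Cherry-expressing plasmid and carried in yeast as a pooled library. Mid-log cultures in leucine-free medium were sorted into four equal gates by GFP/Cherry ratio, and each gate's plasmids were PCR-amplified and Illumina-sequenced.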

| Sequence | protein stability index (doa10∆) | protein stability index (pdr5∆) | protein stability index (san1∆) | protein stability index (ubr1∆) |
| --- | --- | --- | --- | --- |
| PGGAASKSVPTPSLPIA [SNF5] | 2.9 ± 0.062 | 3.07 ± 0.056 | 2.97 ± 0.036 | 3.06 ± 0.041 |
| PGSSITETEVEREQPQE [SRB4] | 3.09 ± 0.093 | 3.38 ± 0.12 | 3.07 ± 0.075 | 3.35 ± 0.078 |
| PHDLIIGTADIFIRQLK [BRR2] | 2.11 ± 0.057 | 2.51 ± 0.069 | 2.27 ± 0.073 | 2.49 ± 0.052 |
| PIDIFQIIRRVKEMEPK [SIR3] | 3.1 ± 0.13 | 3.22 ± 0.18 |  | 2.94 ± 0.29 |
| PIGRDGKLAKPRQLHNT [RPB2] | 2.89 ± 0.077 | 2.88 ± 0.068 | 2.67 ± 0.059 | 2.84 ± 0.081 |
| PILAPSVKDYRPAEETE [RPS3] | 3 ± 0.056 | 3.13 ± 0.051 | 3.174 ± 0.03 | 2.92 ± 0.04 |
| PIPDARNAALRAKAEAA [SCL1] | 2.39 ± 0.14 | 2.69 ± 0.11 | 2.44 ± 0.13 | 2.34 ± 0.092 |
| PKDKAIKRMAIRNIVEA [RPS26A] | 1.25 ± 0.068 | 1.63 ± 0.096 | 1.9 ± 0.15 | 1.95 ± 0.054 |
| PKEVDGLEVGPVVQVGI [IRR1] | 3.38 ± 0.11 | 2.98 ± 0.088 | 3.37 ± 0.18 | 3.23 ± 0.08 |
| PKFAIQDNHHITKVTEN [YMR129W/POM152] | 2.83 ± 0.052 | 2.88 ± 0.058 | 2.75 ± 0.04 | 3.09 ± 0.041 |
| PKFGVEGLIRLDNLTED [DIS3] | 2.97 ± 0.074 | 2.86 ± 0.068 | 3.08 ± 0.043 | 3.07 ± 0.038 |
| PKGATYGKPTNQGVNEL [RPL15A] | 3.02 ± 0.1 | 3.22 ± 0.085 | 3.2 ± 0.054 | 3.29 ± 0.044 |
| PKHSYLSGNPLTSVTND [SIR4] | 2.67 ± 0.073 | 3.03 ± 0.071 | 3.17 ± 0.056 | 2.97 ± 0.074 |
| PKIDEDDTWYNLTEFVQ [AAR2] | 3.17 ± 0.088 | 3.23 ± 0.086 | 3.07 ± 0.049 | 3.07 ± 0.057 |
| PKILIREHERVILKQIL [SWP82] | 1.84 ± 0.081 | 2.18 ± 0.092 | 3.18 ± 0.24 | 3.15 ± 0.12 |
| PKWERVFLFDIEKVDRE [RRI2] | 2.4 ± 0.1 | 2.33 ± 0.056 | 2.1 ± 0.1 | 2.57 ± 0.073 |
| PKYESLKLEYYNLLVKI [RPN5] | 2.1 ± 0.084 | 1.48 ± 0.1 | 1.12 ± 0.3 | 1.24 ± 0.059 |
| PLAAGNFVSEKGDLRRG [RPC53] |  | 3.4 ± 0.19 | 3.31 ± 0.17 | 3.24 ± 0.11 |
| PLAPAPINLPPQIAQLP [SNF5] | 1.8 ± 0.079 | 2.09 ± 0.064 | 1.88 ± 0.12 | 1.97 ± 0.061 |
| PLARNYIKSMDLISKKT [RPR2] | 2.78 ± 0.065 | 3.01 ± 0.063 | 2.77 ± 0.054 | 2.94 ± 0.039 |
| PLEKITDAYLDQYLWYE [PRP8] | 3.19 ± 0.13 | 3.36 ± 0.18 | 3.03 ± 0.18 | 3.18 ± 0.12 |
| PLFFVDLKLLFNTEAEQ [RGR1] | 2.73 ± 0.077 | 2.83 ± 0.063 | 3.19 ± 0.085 | 3.14 ± 0.057 |

| Sequence | protein stability index (doa10∆) | protein stability index (pdr5∆) | protein stability index (san1∆) | protein stability index (ubr1∆) |
| --- | --- | --- | --- | --- |
| PLINLALIDTEFANFEL [YML103C/NUP188] | 2.71 ± 0.083 | 2.72 ± 0.071 | 2.5 ± 0.089 | 2.95 ± 0.073 |
| PLKFKLGPLSYQNMAFI [YJR042W/NUP85] | 2.42 ± 0.064 | 2.55 ± 0.06 | 2.58 ± 0.062 | 2.6 ± 0.049 |
| PLKIHRTPYLTSLKKIK [SWI1] | 1.81 ± 0.054 | 1.82 ± 0.043 | 1.75 ± 0.07 | 1.79 ± 0.039 |
| PLLLVGLDKFSNIDIRV [RPS16A] | 1.83 ± 0.073 | 1.76 ± 0.049 | 1.74 ± 0.094 | 2.11 ± 0.044 |
| PLPAVFSAPIRPDIVHT [RPL4A] | 1.96 ± 0.04 | 2.35 ± 0.04 | 2.08 ± 0.06 | 2.13 ± 0.041 |
| PLPSHALTVQEVLNRVA [YDL116W/NUP84] | 2.29 ± 0.039 | 2.37 ± 0.042 | 2.37 ± 0.053 | 2.33 ± 0.027 |
| PLSRINENENFGYDIPL [YML103C/NUP188] | 3.02 ± 0.12 | 3.14 ± 0.095 | 3.15 ± 0.064 | 3.08 ± 0.077 |
| PLSTYNKNGNAVCSTAT [PGD1] | 2.37 ± 0.096 | 2.63 ± 0.075 | 2.37 ± 0.078 | 2.72 ± 0.088 |
| PLYARYINVNPQEETIT [ECM29] | 2.74 ± 0.07 | 2.85 ± 0.059 | 2.9 ± 0.067 | 2.69 ± 0.041 |
| PLYVMDEIDAALDFRNV [SMC4] | 2.5 ± 0.059 | 2.33 ± 0.066 | 3.26 ± 0.051 | 2.51 ± 0.048 |
| PMHSIMPNSSLQPFYSQ [DSN1] | 2.12 ± 0.072 | 2.65 ± 0.061 | 2.37 ± 0.083 | 2.49 ± 0.048 |
| PNFLGNCNIKDFKPPYI [SWP82] | 2.62 ± 0.048 | 2.64 ± 0.041 | 2.61 ± 0.054 | 2.65 ± 0.031 |
| PNIHQNLLPKKSAKATK [HTA1] | 2.53 ± 0.093 | 2.66 ± 0.082 | 2.69 ± 0.1 | 2.49 ± 0.061 |
| PNKVKTEDIRIRAQNFK [RRP6] | 2.75 ± 0.061 | 2.88 ± 0.082 | 2.56 ± 0.077 | 2.84 ± 0.039 |
| PNTRDAESEAITVTAKQ [SWI3] | 3.08 ± 0.075 | 3.23 ± 0.056 | 3.17 ± 0.063 | 3.15 ± 0.05 |
| PPQAGDRSLADDYDYVM [RPB8] | 3.23 ± 0.11 | 2.99 ± 0.11 | 3.33 ± 0.084 | 3 ± 0.09 |
| PPSLKIIDGPKALILAP [PRP28] | 1.62 ± 0.055 | 1.77 ± 0.07 | 1.51 ± 0.12 | 1.63 ± 0.039 |
| PQDDDSQSKMMSSQISS [MTR3] | 3.14 ± 0.074 | 3.17 ± 0.071 | 3.15 ± 0.043 | 3.27 ± 0.053 |
| PQEETITFLIEKAKEMI [ECM29] | 3.03 ± 0.092 | 3.18 ± 0.13 | 2.95 ± 0.069 | 3.16 ± 0.075 |
| PQFNSPYDSNNSNTNLN [SWI1] | 2.97 ± 0.054 | 3.03 ± 0.047 | 2.76 ± 0.052 | 2.9 ± 0.043 |
| PQLSKAGKFPTPVSHND [RPL1A] | 2.31 ± 0.04 | 2.87 ± 0.048 | 2.36 ± 0.048 | 2.62 ± 0.031 |

Source: the supplement of paper PMC9732359
